Reference: publication PMC7804310 (2021)

Columns and labels:
Assay in all cases: SPR
[1] = target: T1, recombinant human Melanotransferrin MTf(20-709) extracellular domain (human, UniProt P08582-1 20-709, N-glycans at Asn 38, Asn 135 and Asn 515 (high mannose N-glycans favoured by kifunensine for crystallization))
T1 chain: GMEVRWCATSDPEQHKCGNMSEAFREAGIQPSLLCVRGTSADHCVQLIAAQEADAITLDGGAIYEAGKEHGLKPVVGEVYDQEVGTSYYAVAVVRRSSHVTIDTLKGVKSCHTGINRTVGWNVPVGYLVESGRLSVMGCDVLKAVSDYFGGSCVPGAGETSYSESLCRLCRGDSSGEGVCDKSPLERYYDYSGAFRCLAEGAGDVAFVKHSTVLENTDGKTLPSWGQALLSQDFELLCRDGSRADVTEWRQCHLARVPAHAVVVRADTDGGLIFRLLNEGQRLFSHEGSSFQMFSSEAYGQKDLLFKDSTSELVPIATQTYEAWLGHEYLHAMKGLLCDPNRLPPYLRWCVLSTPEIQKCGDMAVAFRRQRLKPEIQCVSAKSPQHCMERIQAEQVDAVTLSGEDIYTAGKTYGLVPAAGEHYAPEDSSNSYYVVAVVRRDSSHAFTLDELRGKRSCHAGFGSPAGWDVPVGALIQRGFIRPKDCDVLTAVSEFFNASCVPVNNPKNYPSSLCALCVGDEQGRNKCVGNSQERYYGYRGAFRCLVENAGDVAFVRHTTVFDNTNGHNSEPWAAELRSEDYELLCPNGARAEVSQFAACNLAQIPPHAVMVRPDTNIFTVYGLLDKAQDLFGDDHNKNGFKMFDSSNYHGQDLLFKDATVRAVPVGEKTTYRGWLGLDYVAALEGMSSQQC

[2] = target: recombinant cynomolgus monkey MTf(20-709) extracellular domain (cynomolgus monkey)
[3] = target: T1, recombinant human Melanotransferrin …

B1: SC57.32 Fab fragment (Fab, V domains shown)
VH: QVQLQQSGAELMKPGASVKISCKATGYTFSNYRIEWIKQRPGHGLEWIGEILPRGGNTNYNEKFKGKATFTADTSSNTAYMQLTSLTSEDSAVYYCARDDGYYGRFAYWGQGTLVTVSA
VL: DIQMTQTTSSLSASLGDRVTISCRASQDISNYLNWYQQKPDGTVKLLIFYTSRLHSGVPSRFSGSGSGTDYSLTISNLEQEDFATYFCQQGNTLPPTFGGGTKLEIK
- koff [1]: 0.00048 s⁻¹
- Kd [2]: 1.1 nM
- koff [2]: 0.00047 s⁻¹
- Kd [3]: 1 nM
